Results on 15 variants are retold here after the supplement of paper PMC7125110.

To fix the notation:
B1: glmS ribozyme (parent)
chain: AUAAAAGCGCCAGAACUACAGAAAUGUAGUUGACGAGGAGGAGGUUUAUCGAAUUUUCGGCGGAUGCCUCCAAA

± gives the standard error. Variants at the floor of the assay were thinned out.

Holding throughout (details): with glucosamine-6-phosphate
The variants in data set [1] derive from B1. Nature of the data set: self-cleavage kobs at 160 uM GlcN6P; higher = faster cleavage; RNA array. In outline: (§1)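 Using a hybridised Cy3 probe at 37 °C, barcoded ribozyme variants transcribed in situ by E. coli RNA polymerase on sequenced MiSeq chips were monitored across tiles imaged over ~14 h. The flow contained glucosamine-6-phosphate from 40 μM to 10 mM in HEPES/KCl/Mg(OAc)2 buffer. Signals were normalised to baseline and to non-cleaving reference variants before per-tile medians were fit to one- or two-exponential decays to yield kobs. Weighted Michaelis–Menten fits across concentrations gave kcat and KM.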

In data set [2] the parent is B1. Put plainly: self-cleavage kobs at 2500 uM GlcN6P; higher = faster cleavage; RNA array. In outline: as §1
Data set [3] covers variants of B1. Nature of the data set: self-cleavage kobs at 640 uM GlcN6P; higher = faster cleavage; RNA array. An outline of the steps: as §1
The variants in data set [4] derive from B1. Nature of the data set: self-cleavage kobs at 10000 uM GlcN6P; higher = faster cleavage; RNA array. In outline: as §1

For the variant AUAAAAGCGCCAGAACUACAGAAAUGUAGUUGACGAGGAGGUGGUUUAUCGGAUUUUCGGCGGAUGCGUCCAAA [A42U A52G C68G], the “self-cleavage kobs at 160 uM GlcN6P” value with glucosamine-6-phosphate [1] is less than 1e-05 s⁻¹. In addition, the “self-cleavage kobs at 2500 uM GlcN6P” value in the data set with glucosamine-6-phosphate [2] was less than 1e-05 s⁻¹.

For the variant AUAAAAGCGCCAGAACUACAGAAAUGUAGUUGACGAGGAGGAGGUGUAUCGAAUUUUCGGCGGUUGCCUCCAAA [U46G A64U], the “self-cleavage kobs at 160 uM GlcN6P” value in the data set with glucosamine-6-phosphate [1] was less than 1e-05 s⁻¹.

With AUAAAAGCGCCAGAACUACAGAAAUGUAGUUGACGCGCAGGAGGUUUAUCGAAUUUUCGGCGAAUGCCUCCAAA [A36C G38C G63A], in the data set with glucosamine-6-phosphate [1], the “self-cleavage kobs at 160 uM GlcN6P” value is less than 1e-05 s⁻¹.

AUAAAAGCGCCAGAACUACAGAAAUGUAGUUGACGAGGAGGAGGUUUAUCGAAUGCUCGGCGGAUGCCUCCAAA [U55G U56C]: the “self-cleavage kobs at 160 uM GlcN6P” value with glucosamine-6-phosphate [1] turned out to be 0.000157 ± 3.8e-05 s⁻¹. Further, the “self-cleavage kobs at 640 uM GlcN6P” value in the data set with glucosamine-6-phosphate [3] turned out to be 0.000938 ± 0.00021 s⁻¹. In the data set with glucosamine-6-phosphate [2], the “self-cleavage kobs at 2500 uM GlcN6P” value was determined as 0.00118 ± 0.00028 s⁻¹. In addition, the “self-cleavage kobs at 10000 uM GlcN6P” value in the data set with glucosamine-6-phosphate [4] was found to be 0.00614 ± 0.0016 s⁻¹.

Regarding AUAAAAGCGCCAGAACUACAGAAAUGUACUUGACGAGGAGGAGGUUUAUCGAAUUUUCGGCGGAUGCCACCAAA [G29C U69A], the “self-cleavage kobs at 160 uM GlcN6P” value with glucosamine-6-phosphate [1] turned out to be 4.08e-05 ± 1.4e-05 s⁻¹. In addition, in the data set with glucosamine-6-phosphate [3], the “self-cleavage kobs at 640 uM GlcN6P” value is 8.01e-05 ± 1.7e-05 s⁻¹. In the data set with glucosamine-6-phosphate [2], the “self-cleavage kobs at 2500 uM GlcN6P” value was found to be 2.32e-05 ± 1e-05 s⁻¹.

In the case of AUAAAAGCGCCAGAACUACAGAAAUGUAGUUGACGAGGAGGAGGUUUAUCGAAGUUUGGGCGGAUGGCUCCAAA [U54G C58G C67G], the “self-cleavage kobs at 160 uM GlcN6P” value with glucosamine-6-phosphate [1] stood at 0.000136 ± 3.4e-05 s⁻¹. Moreover, the “self-cleavage kobs at 640 uM GlcN6P” value with glucosamine-6-phosphate [3] amounted to 0.000215 ± 7.1e-05 s⁻¹. The “self-cleavage kobs at 2500 uM GlcN6P” value with glucosamine-6-phosphate [2] was determined as 8.44e-05 ± 3.2e-05 s⁻¹.

For the variant AUAAAAGCGCAUGAACUACAGAAAUGUAGUUGACGAGGAGGAGGUUUAUCGAAUUUUCGGCGGAUGCCUCCAAA [C11A A12U], in the data set with glucosamine-6-phosphate [1], the “self-cleavage kobs at 160 uM GlcN6P” value is 7.68e-05 ± 1.8e-05 s⁻¹. Besides, the “self-cleavage kobs at 640 uM GlcN6P” value with glucosamine-6-phosphate [3] worked out at 0.000339 ± 6e-05 s⁻¹. Also, the “self-cleavage kobs at 2500 uM GlcN6P” value in the data set with glucosamine-6-phosphate [2] amounted to 0.000539 ± 7.7e-05 s⁻¹. For the same variant, the “self-cleavage kobs at 10000 uM GlcN6P” value with glucosamine-6-phosphate [4] amounted to 0.00156 ± 0.00028 s⁻¹.

Regarding AUAAAAACGCCAGAACUACAGAAAUGUAGUUGUCGAGGAGGAGUUUUAUCGAAUUUUCGGCGGAUGCCUCCAAA [G7A A33U G44U], the “self-cleavage kobs at 160 uM GlcN6P” value in the data set with glucosamine-6-phosphate [1] is less than 1e-05 s⁻¹. Moreover, the “self-cleavage kobs at 2500 uM GlcN6P” value with glucosamine-6-phosphate [2] is less than 1e-05 s⁻¹.

Consider AUAAAAGCGCCAGACCUACAGAAAUGUAGUUGAAGAGGAGGAGUUUUAUCGAAUUUUCGGCGGAUGCCUCCAAA [A15C C34A G44U], for which the “self-cleavage kobs at 160 uM GlcN6P” value with glucosamine-6-phosphate [1] was less than 1e-05 s⁻¹. For the same variant, the “self-cleavage kobs at 640 uM GlcN6P” value with glucosamine-6-phosphate [3] was less than 1e-05 s⁻¹. For the same variant, the “self-cleavage kobs at 2500 uM GlcN6P” value with glucosamine-6-phosphate [2] was less than 1e-05 s⁻¹.

Turning to AUAAAAGCUCCAGAACUACAGAAAUGUAGUAGACGAGGAGGAGGUUUAUCGAAUUUUCGGCGGAUGCCUCUAAA [G9U U31A C71U], the “self-cleavage kobs at 160 uM GlcN6P” value with glucosamine-6-phosphate [1] is less than 1e-05 s⁻¹. In addition, in the data set with glucosamine-6-phosphate [3], the “self-cleavage kobs at 640 uM GlcN6P” value is less than 1e-05 s⁻¹. The “self-cleavage kobs at 2500 uM GlcN6P” value in the data set with glucosamine-6-phosphate [2] is less than 1e-05 s⁻¹.

For AUAAAAGCGCCAGAAAUACAGAAAUGUAGUUGACGAGGAGGAGGUUUAUCGUAUUUUCGGCGGAUGCCUCCAAA [C16A A52U], in the data set with glucosamine-6-phosphate [1], the “self-cleavage kobs at 160 uM GlcN6P” value was less than 1e-05 s⁻¹. In addition, the “self-cleavage kobs at 10000 uM GlcN6P” value with glucosamine-6-phosphate [4] was found to be 3.13e-05 ± 8.8e-06 s⁻¹.

On to AUAAAAGCGCCAGAACUACAGAAAUGUAGUUGACGAGGAGGAGGUUUAUCGAAGUUUCGGCGGAUGCAUCCAAA [U54G C68A], for which, in the data set with glucosamine-6-phosphate [1], the “self-cleavage kobs at 160 uM GlcN6P” value came to 6.58e-05 ± 2.7e-05 s⁻¹. In addition, the “self-cleavage kobs at 640 uM GlcN6P” value in the data set with glucosamine-6-phosphate [3] amounted to 6.59e-05 ± 2.9e-05 s⁻¹. For the same variant, the “self-cleavage kobs at 2500 uM GlcN6P” value with glucosamine-6-phosphate [2] came out at 0.000107 ± 2.7e-05 s⁻¹.

Turning to AUAAAAGGGCCAGAACUACAGAAAUGUAGUUGACGAGGAGGAGGUUUAUCGAAUUUUCGGCCGAUGCCUCCAAA [C8G G62C], in the data set with glucosamine-6-phosphate [1], the “self-cleavage kobs at 160 uM GlcN6P” value was less than 1e-05 s⁻¹. Besides, the “self-cleavage kobs at 10000 uM GlcN6P” value with glucosamine-6-phosphate [4] turned out to be 3.7e-05 ± 8.1e-06 s⁻¹.

In the case of AUAAAAGCGCCAGAACUACAGAAAUGUAUUUGACGAGGAGGUGGUUUUUCGAAUUUUCGGCAGAUGCCUCCAAA [G29U A42U A48U G62A], in the data set with glucosamine-6-phosphate [1], the “self-cleavage kobs at 160 uM GlcN6P” value is less than 1e-05 s⁻¹. Further, the “self-cleavage kobs at 2500 uM GlcN6P” value with glucosamine-6-phosphate [2] was less than 1e-05 s⁻¹.

As to AUAAAAUCGCCAGAACUACAGAAAUGUAGUUGACGAGAAAGAGGUUUAUCGAAUUUUCGGCAGAUGCCUCCAAA [G7U G38A G40A G62A], the “self-cleavage kobs at 160 uM GlcN6P” value with glucosamine-6-phosphate [1] is less than 1e-05 s⁻¹. The “self-cleavage kobs at 640 uM GlcN6P” value with glucosamine-6-phosphate [3] is less than 1e-05 s⁻¹. Also, the “self-cleavage kobs at 2500 uM GlcN6P” value in the data set with glucosamine-6-phosphate [2] is less than 1e-05 s⁻¹.
